Read-outs that look alike come from different tables or passages of the source.
Legend:
[1] = biological target: Undamaged nucleosome core particle (Cy3-labeled human histone octamer on 191 bp Widom 601 DNA) (human) (UniProt P62807); assay: single-molecule fluorescence with optical tweezers
[2] = biological target: Undamaged nucleosome core particle (Cy3-labeled human histone octamer on 191 bp Widom 601 DNA) (human) (UniProt P62807); assay: single-molecule fluorescence with optical tweezers; remark: listed apart in the source

Chain of YFP-PARP1 (poly(ADP-ribose) polymerase 1, wild type) (P09874 whole entry): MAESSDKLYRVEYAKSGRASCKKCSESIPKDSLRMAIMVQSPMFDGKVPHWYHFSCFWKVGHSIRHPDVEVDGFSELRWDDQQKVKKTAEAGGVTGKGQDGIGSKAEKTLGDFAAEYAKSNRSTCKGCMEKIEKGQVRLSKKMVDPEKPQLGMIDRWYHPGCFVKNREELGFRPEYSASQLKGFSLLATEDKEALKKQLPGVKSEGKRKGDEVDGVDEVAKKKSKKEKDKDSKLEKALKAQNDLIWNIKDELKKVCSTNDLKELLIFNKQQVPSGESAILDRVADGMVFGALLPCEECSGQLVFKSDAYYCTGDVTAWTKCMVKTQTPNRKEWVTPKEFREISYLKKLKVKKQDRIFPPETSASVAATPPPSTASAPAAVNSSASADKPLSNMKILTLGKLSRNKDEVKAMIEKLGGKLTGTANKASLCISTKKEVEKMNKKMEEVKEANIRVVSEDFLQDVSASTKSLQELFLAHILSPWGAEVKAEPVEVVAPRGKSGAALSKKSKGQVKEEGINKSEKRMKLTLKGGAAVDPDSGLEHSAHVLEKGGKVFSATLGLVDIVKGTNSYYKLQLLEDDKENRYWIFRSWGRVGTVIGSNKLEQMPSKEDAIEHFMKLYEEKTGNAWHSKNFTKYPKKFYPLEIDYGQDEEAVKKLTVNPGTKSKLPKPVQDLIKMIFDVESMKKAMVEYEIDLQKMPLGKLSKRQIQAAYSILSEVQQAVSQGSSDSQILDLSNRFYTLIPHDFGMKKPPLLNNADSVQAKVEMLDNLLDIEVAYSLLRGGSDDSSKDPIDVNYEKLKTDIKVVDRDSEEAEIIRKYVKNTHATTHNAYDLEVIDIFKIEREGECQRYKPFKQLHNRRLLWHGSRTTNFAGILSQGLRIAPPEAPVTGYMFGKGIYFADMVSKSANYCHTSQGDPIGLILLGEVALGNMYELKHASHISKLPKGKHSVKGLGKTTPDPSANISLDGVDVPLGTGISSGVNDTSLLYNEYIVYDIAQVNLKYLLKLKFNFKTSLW

**Q.** “HaloTag-PARP1 H862A/Y896A/E988A (catalytically dead PARP1) (from UniProt P09874 1-1014) (enzyme)” was tested. Which lifetime [1] did it give?
**A.** The lifetime was 56 s.

**Q.** “YFP-PARP1 (poly(ADP-ribose) polymerase 1, wild type) (from UniProt P09874 1-1014) (enzyme)” was tested. Which Kd [1] did it give?
**A.** The Kd was 10.2 nM.

**Q.** And the lifetime [1]?
**A.** The lifetime was 2.5 s.

**Q.** What about the Kd [2] of the same substance?
**A.** Its Kd is 1 nM.

— publication PMC12796238
